Test results taken from the PETadex activity labels (doi:10.3390/microorganisms12010138).

B1: unnamed (protein)
chain: MKKLLKVLLIIFLVIVVLVIGLVIFLTIASGKQNAPKEYWNAIASEGTIEKEYNKLGSYEFESKVYDAPKVDSHDNNFVVYMPKEEGTYPLVVMVNGSGTPWDKYKAVFEHFASWGYVVVGCNYEISWDGKHASETLDFALNTKEIADKVDTSKVAVCGHSQGGEGAFNAALEYDNSDMYKAIISLSPTNQELALGLKWGFNLDTDDMYAYRLENVTIPTMIIAGTGKFDSETVTPLYKMEDMFEQLNTDVVMARLSNNVDHGAVLYEANGYVIAWLDYYLKGIETNGTAFFGNEAEIKNNTRYQDFTSQKVK
B2: unnamed (protein)
chain: MQNPSAPVVETRQGALTGLTDENVHRWCGIPYAAPPVGDWRWRSPRPPERWDGVRDATAFSASSWQSSEYCQELGGGDPGQFSEDCLYLNVWSPVDRPGSLPVMVWLHGGGFTIGAGGLPPYHGKSLAARGVVVVTINYRLGHLGFFAHPALEGEEERVVHNFALLDQIAALEWVRENITAFGGDPHNVTLFGESAGARSVLSLLASPLAEGLFHKAIVQSGYTLPDTPRQQALQKGEALAAHFGLENATAEQLRAIPPESFWPLTAPLNIAPAPIVGDCVLPEAMLDVFFAARQHPVPVMIGSNSDEASVMAVFGIDLAGQIQKLRRERRFGLGLIKLLYPGVKGDEELGRQVCRDMAFTTMGYVVMQAQQRVGGLCWRYWFDYVAEAEHATYINGAWHGNEVPYVFDTLGQVEPSRQYVNERDLQFAARVADYWVSFARDAGTHDSLSGPTHWPACRKGRDVLLRIGVNKHAGFRLENRFMRARMSLFKRVMKHHVSLD
B3: unnamed (protein)
chain: MNFPRASRLMQAAVLGGLMAVSAAATAQTNPYARGPNPTAASLEASAGPFTVRSFTVSRPSGYGAGTVYYPTNAGGTVGAIAIVPGYTARQSSIKWWGPRLASHGFVVITIDTNSTLDQPSSRSSQQMAALRQVASLNGTSSSPIYGKVDTARMGVMGWSMGGGGSLISAANNPSLKAAAPQAPWDSSTNFSSVTVPTLIFACENDSIAPVNSSALPIYDSMSRNAKQFLEINGGSHSCANSGNSNQALIGKKGVAWMKRFMDNDTRYSTFACENPNSTRVSDFRTANCS
B4: unnamed (protein)
chain: MKKLLKVLLIIFLVIVVLVIGLVIFLTIASGKQNAPKEYWNAIASEGTIEKEYNKLGSYEFESKVYDAPKVDSHDNNFVVYMPKEEGTYPLVVMVNGSGTPWDKYKAVFEHFASWGYVVVGCNYEISWDGKHASETLDFALNTKEIADKVDTSKVAVCGHSQGGEGAFNAALEYDNSDMYKAIISLSPTNQELALGLKWGFNLDTDDMYAYRLENVTIPTMIIAGTGKFDSETVTPLYKMEDMFEQLNTDVVMARLSNNVDHGAVLYEANGYVIAWLDYYLKGIETNGTAFFGNEAEIKNNTRYQDFTSQKV
B5: unnamed (protein)
chain: MEKSVLIKGDNYDISGILSYKETVDKMPAVILCHGTGAQKNEVGDLFVILAEKLLQRGIASIRIDYAGCGDSKADQRELTFLGEVEDTKKAYQYICDLGCVDQKNIGILGFSQGARVVAELLKEMQEFTCVASWSGACQNGRGVFEGWFQEYYQEAEEHGYARIPMGWRDDLLLSKQWFDEIENTTPMDGLKKYTGPVLAVAGAADEIVPCSHTKEIMAEGTNEQSKMLILPGADHIFNVLSGDKTMSEHVLDVTADWFAEVMGGAKISK

Experiments:
[1] = substrate: PET; assay: Proxy for plastic degradation [Released monomer concentration (HPLC/LC-MS) (TPA)]; conditions: pH 7
[2] = substrate: PET; assay: Proxy for plastic degradation [Released monomer concentration (HPLC/LC-MS) (MHET)]; conditions: pH 7

| Protein | Proxy for plastic degradation [1] | Proxy for plastic degradation ([2]; 37 °C) | also measured |
| --- | --- | --- | --- |
| B1 | 6 µM | – | – |
| B2 | 2 µM | 0 µM | Proxy for plastic degradation ([1]; 37 °C): 0 µM; Proxy for plastic degradation [2]: 0 µM |
| B3 | – | – | Proxy for plastic degradation ([2]; part of the chain shown): 370 µM |
| B4 | – | – | Proxy for plastic degradation ([1]; 37 °C, part of the chain shown): 0 µM; Proxy for plastic degradation ([2]; 37 °C, part of the chain shown): 0 µM |
| B5 | 4 µM | 0 µM | – |
